Fewer inactive variants are shown than the library holds.
Experiments:
biotinyl-Trp-oxazolone = experiment: self-aminoacylation, catalytic enhancement (BWO) (fold over background); higher = more active; k-Seq, kA / k0A0; sequences stand for … in GGGAAUGGAUCCACAUCUACGAAUUC…UUCACUGCAGACUUGACGAAGCUG
Method in brief: (§1)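 Mutagenized RNA pools (0.43 μM; 21-nt variable region) were treated with 2–1250 μM of each biotinyl-aminoacyl-oxazolone. Conditions were 50 μL HEPES/NaCl/KCl/MgCl2/CaCl2 buffer, 5% acetonitrile, pH 6.9–7.0, room temperature, 90 minutes. Catalytic enhancement, the median kA relative to the uncatalyzed rate, was derived from streptavidin capture, qPCR and Illumina sequencing.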

biotinyl-Leu-oxazolone = experiment: self-aminoacylation, catalytic enhancement (BLO) (fold over background); higher = more active; k-Seq, kA / k0A0; sequences stand for … in GGGAAUGGAUCCACAUCUACGAAUUC…UUCACUGCAGACUUGACGAAGCUG
Method in brief: as §1

biotinyl-Met-oxazolone = experiment: self-aminoacylation, catalytic enhancement (BMO) (fold over background); higher = more active; k-Seq, kA / k0A0; sequences stand for … in GGGAAUGGAUCCACAUCUACGAAUUC…UUCACUGCAGACUUGACGAAGCUG
Method in brief: as §1

biotinyl-Val-oxazolone = experiment: self-aminoacylation, catalytic enhancement (BVO) (fold over background); higher = more active; k-Seq, kA / k0A0; sequences stand for … in GGGAAUGGAUCCACAUCUACGAAUUC…UUCACUGCAGACUUGACGAAGCUG
Method in brief: as §1

biotinyl-Ile-oxazolone = experiment: self-aminoacylation, catalytic enhancement (BIO) (fold over background); higher = more active; k-Seq, kA / k0A0; sequences stand for … in GGGAAUGGAUCCACAUCUACGAAUUC…UUCACUGCAGACUUGACGAAGCUG
Method in brief: as §1

biotinyl-Phe-oxazolone = experiment: self-aminoacylation, catalytic enhancement (BFO) (fold over background); higher = more active; k-Seq, kA / k0A0; sequences stand for … in GGGAAUGGAUCCACAUCUACGAAUUC…UUCACUGCAGACUUGACGAAGCUG
Method in brief: as §1

Row | Sequence | self-aminoacylation (biotinyl-Trp-oxazolone) | self-aminoacylation (biotinyl-Leu-oxazolone) | self-aminoacylation (biotinyl-Met-oxazolone) | self-aminoacylation (biotinyl-Val-oxazolone) | self-aminoacylation (biotinyl-Ile-oxazolone) | self-aminoacylation (biotinyl-Phe-oxazolone)
1 | AUAACCCUGGUCAUCGAGUGA [Fam2.1 aminoacylation ribozyme variant] | 18.7 | 18.8 | 19.7 | 8.59 | 8.43 | 69.1
2 | AUAACCCUGGUGAUCGAGUGA [Fam2.1 aminoacylation ribozyme variant] | 7.08 | 6.37 | 6.53 | 3.03 | 3.03 | 36.3
3 | AUAACCCUGUUCAUCGAGUGA [Fam2.1 aminoacylation ribozyme variant] | 4.29 | 3.97 | 3.8 | 2.18 | 2.21 | 12.6
4 | AUACACCAAGGUCAUCGGGUG [Fam2.2 aminoacylation ribozyme variant] | 6.72 | 6.13 | 4.18 | 3.5 | 4.48 | 42.2
5 | AUACACCUAGGUCAUCGCGUG [Fam2.2 aminoacylation ribozyme variant] | 8.07 | 10.4 | 8.65 | 5.01 | 4.68 | 69.7
6 | AUACACCUAGGUCAUCGGGUA [Fam2.2 aminoacylation ribozyme variant] | 5.56 | 6.85 | 5.4 | 4.43 | 4.01 | 8.32
7 | AUACACCUAGGUCAUCGGUUG [Fam2.2 aminoacylation ribozyme variant] | 1.54 | 1.31 | 1.44 | 1.24 | 1.1 | 3.92
8 | AUACACCUAGGUGAUCGGGUG [Fam2.2 aminoacylation ribozyme variant] | 4.59 | 3.88 | 3.56 | 2.6 | 3.87 | 16.4
9 | AUACACGUAGGUCAUCGGGUG [Fam2.2 aminoacylation ribozyme variant] | 3.2 | 3.2 | 3.63 | 2.67 | 2.19 | 17.3
10 | AUACAGCUAGGUCAUCGGGUG [Fam2.2 aminoacylation ribozyme variant] | 3.64 | 4.04 | 2.96 | 3.09 | 3.25 | 25.1
11 | AUACCCCUAGGUCAUCGGGUG [Fam2.2 aminoacylation ribozyme variant] | 7.88 | 10.7 | 8.28 | 5.95 | 5.22 | 71.2
12 | AUACCCCUGGUCAUCGAGUGA [Fam2.1 aminoacylation ribozyme variant] | 7.04 | 5.62 | 6.17 | 2.88 | 3.42 | 7.63
13 | AUACUUCAAACAAUCGGUCAG [Fam1A.1 aminoacylation ribozyme variant] | 1.88 | 0.728 | 0.672 | 0.891 | 0.82 | 3.2
14 | AUAUCCCUGGUCAUCGAGUGA [Fam2.1 aminoacylation ribozyme variant] | 11.8 | 9.81 | 10.3 | 5.25 | 5.36 | 10.5
15 | AUCACACUGGUCAUCGAGUGA [Fam2.1 aminoacylation ribozyme variant] | 8.95 | 6.47 | 6.51 | 4.06 | 4.41 | 42.5
16 | AUCACCCUGCUCAUCGAGUGA [Fam2.1 aminoacylation ribozyme variant] | 3.44 | 2.67 | 2.48 | 1.9 | 1.57 | 19.1
17 | AUCACCCUGGCCAUCGAGUGA [Fam2.1 aminoacylation ribozyme variant] | 7.58 | 6.04 | 6.12 | 3.96 | 3.91 | 32
18 | AUCACCCUGGUCAGCGAGUGA [Fam2.1 aminoacylation ribozyme variant] | 10.5 | 8.3 | 8.22 | 4.3 | 4.13 | 38.2
19 | AUCACCCUGGUCAUCGAGUGG [Fam2.1 aminoacylation ribozyme variant] | 10.2 | 12.7 | 10.3 | 5.02 | 4.14 | 41.8
20 | AUCACCCUGGUCAUCGCGUGA [Fam2.1 aminoacylation ribozyme variant] | 33.8 | 36.4 | 33.9 | 17.1 | 12.1 | 215
21 | AUCACCCUGUUCAUCGAGUGA [Fam2.1 aminoacylation ribozyme variant] | 5.52 | 5.15 | 4.68 | 2.78 | 2.85 | 30
22 | AUCCACCUAAGUCAUCGGGUG [Fam2.2 aminoacylation ribozyme variant] | 9.42 | 14.4 | 11.3 | 7.25 | 6.14 | 90.6
23 | AUCCACCUAGGACAUCGGGUG [Fam2.2 aminoacylation ribozyme variant] | 5.03 | 4.49 | 3.23 | 3.38 | 3.12 | 39.9
24 | AUCCACCUAGGUCAUCAGGUG [Fam2.2 aminoacylation ribozyme variant] | 2.64 | 1.82 | 1.74 | 1.74 | 1.51 | 4.11
25 | AUCCACCUAGGUCAUCCGGUG [Fam2.2 aminoacylation ribozyme variant] | 7.83 | 7.31 | 7.38 | 6.56 | 5.53 | 46.1
26 | AUCCACCUAGGUCAUCGGGGG [Fam2.2 aminoacylation ribozyme variant] | 4.13 | 5.3 | 3.97 | 2.77 | 4.14 | 2.86

Row | Sequence | self-aminoacylation (biotinyl-Trp-oxazolone) | self-aminoacylation (biotinyl-Leu-oxazolone) | self-aminoacylation (biotinyl-Met-oxazolone) | self-aminoacylation (biotinyl-Val-oxazolone) | self-aminoacylation (biotinyl-Ile-oxazolone) | self-aminoacylation (biotinyl-Phe-oxazolone)
27 | AUCCACCUGGGUCAUCGGGUG [Fam2.2 aminoacylation ribozyme variant] | 7.25 | 8.16 | 9.47 | 6.05 | 4.48 | 41.8
28 | AUCCUCCUAGGUCAUCGGGUG [Fam2.2 aminoacylation ribozyme variant] | 9.65 | 12.9 | 11.8 | 7.4 | 6.79 | 68.5
29 | AUCCUUCAAACAAUCGGUCUG [Fam1A.1 aminoacylation ribozyme variant] | 3.9 | 0.809 | 0.822 | 0.688 | 0.755 | 4.27
30 | AUGAACCUAGGUCAUCGGGUG [Fam2.2 aminoacylation ribozyme variant] | 6.44 | 7.54 | 5.97 | 4.28 | 4.29 | 24.6
31 | AUGACCCGGGUCAUCGAGUGA [Fam2.1 aminoacylation ribozyme variant] | 6.53 | 7.47 | 6.73 | 3.55 | 3.9 | 46.3
32 | AUGACCCUAGUCAUCGAGUGA [Fam2.1 aminoacylation ribozyme variant] | 7.34 | 5.61 | 6.07 | 3.27 | 3.13 | 26.6
33 | AUGACCCUCGUCAUCGAGUGA [Fam2.1 aminoacylation ribozyme variant] | 3.73 | 3.43 | 3.35 | 2.06 | 2.05 | 14.7
34 | AUGACCCUGGUAAUCGAGUGA [Fam2.1 aminoacylation ribozyme variant] | 6.37 | 5.39 | 5.08 | 2.8 | 2.7 | 23.9
35 | AUGACCCUGGUCAUCGAAUGA [Fam2.1 aminoacylation ribozyme variant] | 1.44 | 2.06 | 1.46 | 1.35 | 1.59 | 6.66
36 | AUGACCCUGGUCAUUGAGUGA [Fam2.1 aminoacylation ribozyme variant] | 7.49 | 7.74 | 7.27 | 3 | 3.61 | 49.8
37 | AUGACCCUGGUCGUCGAGUGA [Fam2.1 aminoacylation ribozyme variant] | 0.916 | 1.38 | 1.25 | 0.888 | 1.01 | 4.65
38 | AUGACCCUGGUGAUCGAGUGA [Fam2.1 aminoacylation ribozyme variant] | 5 | 5.51 | 4.4 | 2.44 | 2.8 | 27.3
39 | AUGACCCUUGUCAUCGAGUGA [Fam2.1 aminoacylation ribozyme variant] | 7 | 6.36 | 6.11 | 3.19 | 3.06 | 31.3
40 | AUGACCUUGGUCAUCGAGUGA [Fam2.1 aminoacylation ribozyme variant] | 6.29 | 5.27 | 5.23 | 3.1 | 3.22 | 22.3
41 | AUGAGCCUGGUCAUCGAGUGA [Fam2.1 aminoacylation ribozyme variant] | 6.33 | 5.69 | 5.66 | 3.71 | 3.82 | 31.3
42 | AUGCACCUAGGUAAUCGGGUG [Fam2.2 aminoacylation ribozyme variant] | 3.25 | 2.31 | 2.56 | 1.94 | 2.07 | 10.9
43 | AUGCACCUAGGUCAACGGGUG [Fam2.2 aminoacylation ribozyme variant] | 2.21 | 2.68 | 2.51 | 1.95 | 2.45 | 14.2
44 | AUGCACCUAGGUCACCGGGUG [Fam2.2 aminoacylation ribozyme variant] | 4.46 | 3.59 | 3.97 | 3.68 | 3.86 | 25
45 | AUGCACCUAGGUCAUCGGCUG [Fam2.2 aminoacylation ribozyme variant] | 2.5 | 1.83 | 2.3 | 2.2 | 1.99 | 11
46 | AUGCACCUAGGUCAUCGGGUU [Fam2.2 aminoacylation ribozyme variant] | 4.05 | 4.54 | 4.43 | 3.24 | 3.66 | 5.22
47 | AUGCACCUAGGUGAUCGGGUG [Fam2.2 aminoacylation ribozyme variant] | 6.5 | 5.11 | 4.8 | 3.71 | 4.96 | 30.7
48 | AUGCACCUAGUUCAUCGGGUG [Fam2.2 aminoacylation ribozyme variant] | 4.29 | 3.07 | 2.73 | 2.37 | 2.77 | 13.6
49 | AUGCACGUAGGUCAUCGGGUG [Fam2.2 aminoacylation ribozyme variant] | 5.33 | 4.72 | 4.47 | 3.89 | 3.52 | 45.4
50 | AUGUAUGCUAAUAGUCGCAAG [Fam3.1 aminoacylation ribozyme variant] | 1.95 | 1.14 | 1.67 | 1.39 | 1.62 | 3.25
51 | AUGUGUGCUAAUAGUCGCAAG [Fam3.1 aminoacylation ribozyme variant] | 1.95 | 1.36 | 1.2 | 1.37 | 1.57 | 3.53
